Results published in PMC3725402, “Evolution of the key alkaloid enzyme putrescine N-methyltransferase from spermidine synthase” (Frontiers in Plant Science, 2013).

Test system: NCCCCN
Test: purified protein
Conditions: PMT activity, co-substrate SAM, 20 mM HEPES pH 8.0, 37°C, 2 mM DTT, 1 mM ascorbic acid

Row | Substance | Km
1 | DsPMT (putrescine N-methyltransferase) (Datura stramonium) | 190 ± 27.67 µM
2 | DsPMT (putrescine N-methyltransferase) (Datura stramonium; H108L) | 3130 ± 732.59 µM
